Results on three molecules are retold here after patent US20120058906A1 (published 2012).

Test [1] has as its target T1, rHuman EGF R/Fc Chimera, CF (R&D Systems Cat#344-ER) (human, UniProt P00533 25-645).
T1 construct: also called epidermal growth factor receptor; Fc part of the bought chimera not given
Put plainly: MSD ECL multi-spot plate; Fab 8.1 nM; blank spot 435.

Test [2] addresses T2, rHuman ErbB2/Fc Chimera, CF (R&D Systems Cat#1129-ER) (human, UniProt P04626 23-652).
T2 construct: also called HER2/neu; human epidermal growth factor 2 receptor; Fc part of the bought chimera not given
Described as above.

The target of test [3] is T3, rHuman Erythropoietin R/Fc Chimera, CF (R&D Systems Cat#963-ER) (human, UniProt P19235 25-250).
T3 construct: Bought Fc chimera; also called EPO R/Fc; Epo R; not shown: Fc of the bought chimera
T3 sequence: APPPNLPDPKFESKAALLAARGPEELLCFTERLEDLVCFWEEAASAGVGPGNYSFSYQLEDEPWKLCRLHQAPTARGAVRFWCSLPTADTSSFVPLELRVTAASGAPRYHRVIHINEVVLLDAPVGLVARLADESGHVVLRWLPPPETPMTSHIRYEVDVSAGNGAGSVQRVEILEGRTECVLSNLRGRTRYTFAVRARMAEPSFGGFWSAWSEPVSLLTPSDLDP
The test is described as follows: ECL (MSD multi-spot), antigen on plate, Fab 2 nM.

In test [4] the target is T4, rHuman EGF R/Fc Chimera, CF (R&D Systems Cat#344-ER) (human, UniProt P00533 25-645).
T4 construct: Bought Fc chimera; also called ErbB-1; not shown: Fc of the bought chimera
The test is described as follows: ECL (MSD multi-spot), antigen on plate, Fab 2 nM.

The target of test [5] is T5, rHuman Notch-1/Fc Chimera, CF (R&D Systems Cat#3647-TK) (human, UniProt P46531 19-526).
T5 construct: Bought Fc chimera; not shown: Fc of the bought chimera
Put plainly: ECL (MSD multi-spot), antigen on plate, Fab 2 nM.

For test [6], the target named is T6, rHuman ErbB2/Fc Chimera, CF (R&D Systems Cat#1129-ER) (human, UniProt P04626 23-652).
T6 construct: Bought Fc chimera; also called HER2/neu; not shown: Fc of the bought chimera
The test is described as follows: ECL (MSD multi-spot), antigen on plate, Fab 2 nM.

In test [7] the target is T7, rHuman HGF R/c-MET/Fc Chimera, CF (R&D Systems Cat#358-MT/CF) (human, UniProt P08581 25-932).
T7 construct: Bought Fc chimera; also called HGF R/Fc; not shown: Fc of the bought chimera
Put plainly: ECL (MSD multi-spot), antigen on plate, Fab 2 nM.

Test [8] has as its target T8, rHuman CD44/Fc Chimera, CF (R&D Systems Cat#3660-CD) (human, UniProt P16070 21-220).
T8 construct: Bought Fc chimera; not shown: Fc of the bought chimera
Put plainly: ECL (MSD multi-spot), antigen on plate, Fab 2 nM.

In test [9] the target is T9, rHuman P-Cadherin/Fc Chimera, CF (R&D Systems Cat#861-PC) (human, UniProt P22223 108-654).
T9 construct: Bought Fc chimera; also called CDH3; not shown: Fc of the bought chimera
Put plainly: ECL (MSD multi-spot), antigen on plate, Fab 2 nM.

In test [10] the target is T10, Recombinant Human DLL4 (R&D Systems Cat#1506-D4/CF) (human, UniProt Q9NR61 27-524).
T10 construct: Bought recombinant protein; also called delta-like protein 4
Put plainly: ECL (MSD multi-spot), antigen on plate, Fab 2 nM.

The target of test [11] is T11, rHuman IGF-1 sR (insulin-like growth factor-1 soluble receptor), CF (R&D Systems Cat#391-GR) (human, UniProt P08069 31-932).
T11 construct: Bought soluble receptor; also called IGF-R1
The test is described as follows: ECL (MSD multi-spot), antigen on plate, Fab 2 nM.

The target in test [12] is T12, rHuman Erythropoietin R/Fc Chimera, CF (R&D Systems Cat#963-ER) (human, UniProt P19235 25-250).
T12 construct: Bought reagent; also called EPO R/Fc; Epo R; Fc part of the bought chimera not given
T12 sequence: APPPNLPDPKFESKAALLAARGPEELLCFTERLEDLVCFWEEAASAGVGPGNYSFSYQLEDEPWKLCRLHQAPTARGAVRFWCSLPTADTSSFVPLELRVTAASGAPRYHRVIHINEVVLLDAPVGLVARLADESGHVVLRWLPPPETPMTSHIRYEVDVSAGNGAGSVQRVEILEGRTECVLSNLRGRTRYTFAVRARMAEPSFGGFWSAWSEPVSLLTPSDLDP
The test is described as follows: ECL (MSD multi-spot), antigen spotted on plate; Fab 44.1 nM; blank spot 200.

Test [13] deals with T13, rHuman CD44/Fc Chimera, CF (R&D Systems Cat#3660-CD) (human, UniProt P16070 21-220).
T13 construct: Bought reagent; Fc part of the bought chimera not given
Described as above.

For test [14], the target named is T14, rHuman Notch-1/Fc Chimera, CF (R&D Systems Cat#3647-TK) (human, UniProt P46531 19-526).
T14 construct: Bought reagent; Fc part of the bought chimera not given
The test is described as above.

For test [15], the target named is T15, rHuman IGF-1 sR (IGF-1 sR), CF (R&D Systems Cat#391-GR) (human, UniProt P08069 31-932).
T15 construct: Bought soluble receptor; also called insulin-like growth factor-1 soluble receptor; IGF-R1
The test is described as above.

Test [16] deals with T16, rHuman EGF R/Fc Chimera, CF (R&D Systems Cat#344-ER) (human, UniProt P00533 25-645).
T16 construct: Bought reagent; also called epidermal growth factor receptor; Fc part of the bought chimera not given
The test is described as above.

Test [17] addresses T17, Recombinant Human DLL4 (R&D Systems Cat#1506-D4/CF) (human, UniProt Q9NR61 27-524).
T17 construct: Bought reagent; also called delta-like protein 4
The description is as above.

For test [18], the target named is T18, rHuman HGF R/c-MET/Fc Chimera, CF (R&D Systems Cat#358-MT/CF) (human, UniProt P08581 25-932).
T18 construct: Bought reagent; also called HGF R/Fc; hepatocyte growth factor receptor; Fc part of the bought chimera not given
The test is described as above.
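Note: blank spot per well as comparator with Hit at signal to blank ratio of 4 or more.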

B1: Fab VH1-8_IGHD2-2*01_IGHJ6*01 & L12_IGKJ1*01 (Fab, V domains shown)
VH: QVQLVQSGAEVKKPGASVKVSCKASGYTFTSYDINWVRQATGQGLEWMGWMNPNSGNTGYAQKFQGRVTMTRNTSISTAYMELSSLRSEDTAVYYCARGGYCSSTSCYADYYYYYGMDVWGQGTTVTVSS
VL: not shown
Take B1: the ECL signal in [1] worked out at 560 ECL signal; in [2], 557 ECL signal.

B2: Fab VH1-46_IGHD6-6*01_IGHJ1*01_S102A_S103P_S104F & L6_IGKJ1*01_S28P (Fab, V domains shown)
VH: QVQLVQSGAEVKKPGASVKVSCKASGYTFTSYYMHWVRQAPGQGLEWMGIINPSGGSTSYAQKFQGRVTMTRDTSTSTVYMELSSLRSEDTAVYYCAREEYAPFSAEYFQHWGQGTLVTVSS
VL: EIVLTQSPATLSLSPGERATLSCRASQPVSSYLAWYQQKPGQAPRLLIYDASNRATGIPARFSGSGSGTDFTLTISSLEPEDFAVYYCQQRSNWPPWTFGQGTKVEIKR
notes: Fab
With B2, the ECL signal is 251 ECL signal in test [3]; 352 ECL signal in [4]; 307 ECL signal in test [5]; 176 ECL signal in [6]; 255 ECL signal in test [7]; 266 ECL signal in test [8]. Further, the values for the ECL signal in test [9], in [10] and in test [11] were 223 ECL signal, 6100 ECL signal and 205 ECL signal, respectively.

B3: Fab VH1-46_IGHD3-10*01_IGHJ4*01 & B3_IGKJ1*01 (Fab, V domains shown)
VH: QVQLVQSGAEVKKPGASVKVSCKASGYTFTSYYMHWVRQAPGQGLEWMGIINPSGGSTSYAQKFQGRVTMTRDTSTSTVYMELSSLRSEDTAVYYCAREYYYGSGSYYNDYFDYWGQGTLVTVSS
VL: not shown
notes: also called IGHV1-46*01
On to B3, for which the ECL signal in test [12] worked out at 2390; in [13] it was 302; in [14] it was 331; in test [15], 309; in test [16], 428; in [17], 388. Besides, the ECL signal in test [18] is 336.
